Experimental data: patent US11278600B2, “Human alpha-galactosidase variants” (Codexis, Inc., priority 2014, dated 2022)

B1: 214 (protein)
chain: LDNGLARTPTMGWLHWERFMCNLDCQEEPDSCISEKLFMEMAELMVSEGWKDAGYEYLCIDDCWMAPQRDSEGRLQADPQRFPHGIRQLANYVHSKGLKLGIYADVGNKTCAGFPGSFGYYDIDAQTFADWGVDLLKFDGCYCDSLENLADGYKHMSLALNRTGRSIVYSCEWPLYMWPFQKPNYTEIRQYCNHWRNFADIDDSWASIKSILDWTSFNQERIVDVAGPGGWNDPDMLVIGNFGLSWNQQVTQMALWAIMAAPLFMSNDLRHISPQAKALLQDKDVIAINQDPLGKQGYQLRQGDNFEVWERPLSGLAWAVAMINRQEIGGPRSYTIAVASLGDGVACNPACFITQLLPVKRKLGLYNWTSRLRSHINPTGTVLLQLENTMQMSKDLLL
modifications: Synthetic Polypeptide sequence of Variant No. 214 of mature Human GLA
B2: 215 (protein)
chain: LDNGLARTPTMGWLHWERFMCNLDCQEEPDSCISEKLFMEMAELMVSEGWKDAGYEYLCIDDCWMAPQRDSEGRLQADPQRFPHGIRQLANYVHSKGLKLGIYADVGNKTCAGFPGSFGYYDIDAQTFADWGVDLLKFDGCYCDSLENLADGYKHMSLALNRTGRSIVYSCEWPLYMWPFQKPNYTEIRQYCNHWRNFADIDDSWASIKSILDWTSFNQERIVDVAGPGGWNDPDMLVIGNFGLSWNQQVTQMALWAIMAAPLFMSNDLRHISPQAKALLQDKDVIAINQDPLGKQGYQLRQGDNFEVWERPLSGLAWAVAMINRQEIGGPRSYTIAVASLGGGVACNPACFITQLLPVKRKLGFYEWTSRLRSHINPTGTVLLQLENTMQMSKDLLL
modifications: Synthetic Polypeptide sequence of Variant No. 215 of mature Human GLA
B3: 216 (protein)
chain: LDNGLARTPTMGWLHWERFMCNLDCQEEPDSCISEKLFMEMAELMVSEGWKDAGYEYLCIDDCWMAPQRDSEGRLQADPQRFPHGIRQLANYVHSKGLKLGIYADVGNKTCAGFPGSFGYYDIDAQTFADWGVDLLKFDGCYCDSLENLADGYKHMSLALNRTGRSIVYSCEWPLYMWPFQKPNYTEIRQYCNHWRNFADIDDSWASIKSILDWTSFNQERIVDVAGPGGWNDPDMLVIGNFGLSWNQQVTQMALWAIMAAPLFMSNDLRHISPQAKALLQDKDVIAINQDPLGKQGYQLRQGDNFEVWERPLSGLAWAVAMINRQEIGGPRSYTIAVASLGGGVACNPACFITQLLPVKRKLGLYNWTSRLKSHINPTGTVLLQLENTMQMSKDLLL
modifications: Synthetic Polypeptide sequence of Variant No. 216 of mature Human GLA
B4: 222 (protein)
chain: LDNGLARTPTMGWLHWERFMCNLDCQEEPDSCISEKLFMEMAELMVSEGWKDAGYEYLCIDDCWMAPQRDSEGRLQADPQRFPHGIRQLANYVHSKGLKLGIYADVGNKTCAGFPGSFGYYDIDAQTFADWGVDLLKFDGCYCDSLENLADGYKHMSLALNRTGRSIVYSCEWPLYMWPFQKPNYTEIRQYCNHWRNFADIDDSWASIKSILDWTSFNQERIVDVAGQGGWNDPDMLVIGNFGLSWNQQVTQMALWAIMAAPLFMSNDLRHISPQAKALLQDKDVIAINQDPLGKQGYQLRQGDNFEVWERPLSGLAWAVAMINRQEIGGPRSYTIAVASLGKGVACNPACFITQLLPVKRKLGFYEWDSRLRSHINPTGTVLLQLENTMQMSKDLLL
modifications: Synthetic Polypeptide sequence of Variant No. 222 of mature Human GLA
B5: 220 (protein)
chain: LDNGLARTPTMGWLHWERFMCNLDCQEEPDSCISEKLFMEMAELMVSEGWKDAGYEYLCIDDCWMAPQRDSEGRLQADPQRFPHGIRQLANYVHSKGLKLGIYADVGNKTCAGFPGSFGYYDIDAQTFADWGVDLLKFDGCYCDSLENLADGYKHMSLALNRTGRSIVYSCEWPLYMWPFQKPNYTEIRQYCNHWRNFADIDDSWASIKSILDWTSFNQERIVDVAGPGGWNDPDMLVIGNFGLSWNQQVTQMALWAIMAAPLFMSNDLRHISPQAKALLQDKDVIAINQDPLGKQGYQLRQGDNFEVWERPLSGLAWAVAVINRQEIGGPRSYTIAVASLGKGVACNPACFITQLLPVKRKLGFYEWTSRLKSHVNPTGTVLLQLENTMQMSKDLLL
modifications: Synthetic Polypeptide sequence of Variant No. 220 of mature Human GLA
B6: 218 (protein)
chain: LDNGLARTPTMGWLHWERFMCNLDCQEEPDSCISEKLFMEMAELMVSEGWKDAGYEYLCIDDCWMAPQRDSEGRLQADPQRFPHGIRQLANYVHSKGLKLGIYADVGNKTCAGFPGSFGYYDIDAQTFADWGVDLLKFDGCYCDSLENLADGYKHMSLALNRTGRSIVYSCEWPLYMWPFQKPNYTEIRQYCNHWRNFADIDDSWASIKSILDWTSFNQERIVDVAGPGGWNDPDMLVIGNFGLSWNQQVTQMALWAIMAAPLFMSNDLRHISPQAKALLQDKDVIAINQDPLGKQGYQLRQGDNFEVWERPLSGLAWAVAIINRQEIGGPRSYTIAVASLGKGVACNPACFITQLLPVKRKLGFYNWTSRLKSHINPTGTVLLQLENTMQMSLKDLL
modifications: Synthetic Polypeptide sequence of Variant No. 218
B7: 221 (protein)
chain: LDNGLARTPTMGWLHWERFMCNLDCQEEPDSCISEKLFMEMAELMVSEGWKDAGYEYLCIDDCWMAPQRDSEGRLQADPQRFPHGIRQLANYVHSKGLKLGIYADVGNKTCAGFPGSFGYYDIDAQTFADWGVDLLKFDGCYCDSLENLADGYKHMSLALNRTGRSIVYSCEWPLYMWPFQKPNYTEIRQYCNHWRNFADIDDSWASIKSILDWTSFNQERIVDVAGPGGWNDPDMLVIGNFGLSWNQQVTQMALWAIMAAPLFMSNDLRHISPQAKALLQDKDVIAINQDPLGKQGYQLRQGDNFEVWERPLSGLAWAVAMINRQEIGGPRSYTIAVASLGKGVACNPACFITQLLPVKRKLGFYEWTSRLRSHINPTGTVLLQLENTIQMSKDLLL
modifications: Synthetic Polypeptide sequence of Variant No. 221 of mature Human GLA
B8: 219 (protein)
chain: LDNGLARTPTMGWLHWERFMCNLDCQEEPDSCISEKLFMEMAELMVSEGWKDAGYEYLCIDDCWMAPQRDSEGRLQADPQRFPHGIRQLANYVHSKGLKLGIYADVGNKTCAGFPGSFGYYDIDAQTFADWGVDLLKFDGCYCDSLENLADGYKHMSLALNRTGRSIVYSCEWPLYMWPFQKPNYTEIRQYCNHWRNFADIDDSWASIKSILDWTSFNQERIVDVAGPGGWNDPDMLVIGNFGLSWNQQVTQMALWAIMAAPLFMSNDLRHISPQAKALLQDKDVIAINQDPLGKQGYQLRQGDNFEVWERPLSGLAWAVAIINRQEIGGPRSYTIAVASLGKGVACNPACFITQLLPVKRKLGFYEWTSRLKSHINPTGTVLLQLENTMQMSKDLLL
modifications: Synthetic Polypeptide sequence of Variant No. 219 of mature Human GLA

Key:
Format in all cases: biochemical
[1] = HTP-analysis of yeast culture supernatants, no challenge (MUGal hydrolysis); conditions: activity of the variant/activity of Rd2BB (SEQ ID NO: 10), yeast supernatant
Summary of the method: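 Activity read as 4-methylumbelliferyl α-D-galactopyranoside hydrolysis: fluorescence (355/448 nm) after sodium carbonate stop, following 30-180 min at 37° C with 2 mM MUGal stock at pH 4.6–4.8. Enzyme source is unchallenged culture supernatant of INVSc1 yeast expressing GLA variants, grown 66-84 h at 30° C.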

[2] = HTP-analysis of supernatants pretreated with acid (MUGal hydrolysis); conditions: challenge at pH 4.2; activity of the variant/activity of Rd2BB (SEQ ID NO: 10); yeast supernatant
Summary of the method: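 GLA variants were secreted from INVSc1 yeast grown 66-84 h at 30° C. in SD-Ura with 2% glucose; supernatants were mixed with McIlvaine buffer pH 3.3-4.3 and held at 37° C. for 1-3 h. Residual activity on MUGal at pH 4.8 was then measured by fluorescence.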

[3] = HTP-analysis of supernatants pretreated with base (MUGal hydrolysis); conditions: challenge at pH 7.6; activity of the variant/activity of Rd2BB (SEQ ID NO: 10); yeast supernatant
Summary of the method: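 GLA variants secreted from yeast INVSc1; culture supernatants pre-incubated with McIlvaine buffer pH 7.0–8.2 or 200 mM bicarbonate pH 9.1–9.7 at 37° C. for 1–18 h. Residual activity: MUGal (4 mM stock) hydrolysis at pH 4.3–4.8, 37° C., 30–180 min, carbonate quench; fluorescence Ex 355/Em 448 nm.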

Row | Molecule | Relative Activity of GLA Variants After No Challenge (NC) [1] | Relative Activity of GLA Variants After Challenge at pH 4.2 [2] | Relative Activity of GLA Variants After Challenge at pH 7.6 [3]
1 | B1 | +++ (+++ = >2.5 relative activity over Rd2BB (SEQ ID NO: 10)) | +++ (+++ = >2.5 relative activity over Rd2BB (SEQ ID NO: 10)) | +++ (+++ = >2.5 relative activity over Rd2BB (SEQ ID NO: 10))
2 | B2 | + (+ = 0.5 to 1.5 relative activity over Rd2BB (SEQ ID NO: 10)) | + (+ = 0.5 to 1.5 relative activity over Rd2BB (SEQ ID NO: 10)) | + (+ = 0.5 to 1.5 relative activity over Rd2BB (SEQ ID NO: 10))
3 | B3 | ++ (++ = 1.5 to 2.5 relative activity over Rd2BB (SEQ ID NO: 10)) | +++ (+++ = >2.5 relative activity over Rd2BB (SEQ ID NO: 10)) | +++ (+++ = >2.5 relative activity over Rd2BB (SEQ ID NO: 10))
4 | B4 | ++ (++ = 1.5 to 2.5 relative activity over Rd2BB (SEQ ID NO: 10)) | ++ (++ = 1.5 to 2.5 relative activity over Rd2BB (SEQ ID NO: 10)) | + (+ = 0.5 to 1.5 relative activity over Rd2BB (SEQ ID NO: 10))
5 | B5 | + (+ = 0.5 to 1.5 relative activity over Rd2BB (SEQ ID NO: 10)) | + (+ = 0.5 to 1.5 relative activity over Rd2BB (SEQ ID NO: 10)) | ++ (++ = 1.5 to 2.5 relative activity over Rd2BB (SEQ ID NO: 10))
6 | B6 | +++ (+++ = >2.5 relative activity over Rd2BB (SEQ ID NO: 10)) | +++ (+++ = >2.5 relative activity over Rd2BB (SEQ ID NO: 10)) | +++ (+++ = >2.5 relative activity over Rd2BB (SEQ ID NO: 10))
7 | B7 | + (+ = 0.5 to 1.5 relative activity over Rd2BB (SEQ ID NO: 10)) | + (+ = 0.5 to 1.5 relative activity over Rd2BB (SEQ ID NO: 10)) | + (+ = 0.5 to 1.5 relative activity over Rd2BB (SEQ ID NO: 10))
8 | B8 | + (+ = 0.5 to 1.5 relative activity over Rd2BB (SEQ ID NO: 10)) | + (+ = 0.5 to 1.5 relative activity over Rd2BB (SEQ ID NO: 10)) | + (+ = 0.5 to 1.5 relative activity over Rd2BB (SEQ ID NO: 10))
